Target: MBP-NES^MVM
Assay: MST

For “yCRM1a C152S/C539T (from UniProt P30822 1-1055) (receptor)”, which fold weaker affinity than the C152/C539/C1022 triple mutant is on record?
Its fold weaker affinity than the C152/C539/C1022 triple mutant is 5 fold.

From publication doi:10.1101/2020.08.05.237479
